The target of the experiment is IgG1 (manufactured by Sigma-Aldrich). Kind of experiment: SPR (Biacore T100), Fc-binding protein amine-coupled to CM5, IgG1 as analyte. In general terms: SPR reads the build-up and loss of mass on a sensor chip optically.

B1: Fc-binding protein FcR9_F (FcR9 with Val192Phe) (receptor)
chain: KIEEAMGMRTEDLPKAEVILEPQWNRVLEKDSVTLKCRGAYSPEDNSTQWFHNESLISSQASSYLIDAATVDDSGEYRCQTSLSTLSDPVQLEVHIGWLLLQAPRWEFKEGDPIHLRCHSWKNTALHKVTYLQNGKGRKYFHHNSDFYIPKATLKDSGSYSCRGLFGSKNVSSETVNITITQGGHHHHHH
Consider B1, for which the Kd turned out to be 3.28 µM, the koff is 0.301 s⁻¹ and the kon was 90200 M⁻¹ s⁻¹.

As a reminder, the Kd is a measure of binding affinity in units of concentration. Lower therefore signals a tighter complex. One may read the koff as the first-order rate constant of dissociation. A lower koff goes with slow dissociation. The term kon denotes the second-order rate constant of association.

The values above are taken from patent publication US20200223885A1.
